Measured values taken from paper PMC9398005, “A Drosophila Su(H) model of Adams-Oliver Syndrome reveals cofactor titration as a mechanism underlying developmental defects” (PLoS Genetics, 2021).

Tests used:
Details in all cases: both partners purified
mouse Rbpj WT (53-474) = target: T1, mouse Rbpj WT (53-474) (mouse, UniProt P31266 53-474); assay: ITC; RAM peptide, Hairless or SHARP in the syringe, Su(H) or Rbpj in the cell; 50 mM sodium phosphate, 150 mM sodium chloride; 20 injections of 14 uL; triplicate; one site binding model; 20°C by the methods, 25°C by the legend of Fig 6
T1 construct: also called CBF1; mouse CSL; source: E. coli BL21 Tuner, pGEX-6P1, purified (glutathione resin, PreScission cleavage, SP ion exchange)
T1 sequence (P31266 53-474): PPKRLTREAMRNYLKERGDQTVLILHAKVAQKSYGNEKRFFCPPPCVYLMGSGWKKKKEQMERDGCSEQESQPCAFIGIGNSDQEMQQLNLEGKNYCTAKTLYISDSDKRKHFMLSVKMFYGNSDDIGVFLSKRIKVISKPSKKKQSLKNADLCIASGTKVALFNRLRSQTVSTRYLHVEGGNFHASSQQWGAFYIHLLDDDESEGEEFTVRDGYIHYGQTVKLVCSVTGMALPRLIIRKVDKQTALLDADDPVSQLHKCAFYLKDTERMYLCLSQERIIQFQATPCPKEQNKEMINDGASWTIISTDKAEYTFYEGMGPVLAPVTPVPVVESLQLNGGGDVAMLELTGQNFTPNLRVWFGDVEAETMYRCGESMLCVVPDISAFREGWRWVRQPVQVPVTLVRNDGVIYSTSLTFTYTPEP

[1] = target: T2, mouse Rbpj K195E (53-474) (mouse, UniProt P31266 53-474, K195E); assay: as above
T2 construct: also called analogous to human RBPJ K169E; source: E. coli BL21 Tuner, pGEX-6P1, purified (glutathione resin, PreScission cleavage, SP ion exchange)
T2 sequence (P31266 53-474 K195E): as the sequence (P31266 53-474) above, with K143E counted along it

mouse Rbpj E89G (53-474) = target: T3, mouse Rbpj E89G (53-474) (mouse, UniProt P31266 53-474, E89G); assay: as above
T3 construct: also called analogous to human RBPJ E63G; source: E. coli BL21 Tuner, pGEX-6P1, purified (glutathione resin, PreScission cleavage, SP ion exchange)
T3 sequence (P31266 53-474 E89G): as the sequence (P31266 53-474) above, with E37G counted along it

[2] = target: T4, mouse Rbpj (53-474) K195E (mouse, UniProt P31266 53-474, K195E); assay: ITC; cofactor (RAM peptide, Hairless or SHARP) in the syringe, Su(H) or Rbpj in the cell; 50 mM sodium phosphate, 150 mM sodium chloride; 20 injections, triplicate, one site model; 25°C by the legend, 20°C by the methods
T4 construct: also called Rbpj K195E; K195E (analogous to human RBPJ K169E); source: E. coli BL21 Tuner, purified (ammonium sulfate, glutathione resin, PreScission cut, SP ion exchange)
T4 sequence (P31266 53-474 K195E): as the sequence (P31266 53-474) above, with K143E counted along it

mouse Rbpj (53-474) WT = target: T5, mouse Rbpj (53-474) WT (mouse, UniProt P31266 53-474); assay: as above
T5 construct: also called WT Rbpj; WT RBPJ; source: E. coli BL21 Tuner, purified (ammonium sulfate, glutathione resin, PreScission cut, SP ion exchange)
T5 sequence (P31266 53-474): as the sequence (P31266 53-474) above

mouse Rbpj (53-474) E89G = target: T6, mouse Rbpj (53-474) E89G (mouse, UniProt P31266 53-474, E89G); assay: as above
T6 construct: also called Rbpj E89G; E89G (analogous to human RBPJ E63G); source: E. coli BL21 Tuner, purified (ammonium sulfate, glutathione resin, PreScission cut, SP ion exchange)
T6 sequence (P31266 53-474 E89G): as the sequence (P31266 53-474) above, with E37G counted along it

Ka (mouse Rbpj WT (53-474))	Kd (mouse Rbpj WT (53-474))	Ka [1]	Kd [1]	Ka (mouse Rbpj E89G (53-474))	Kd (mouse Rbpj E89G (53-474))	Kd [2]	Kd (mouse Rbpj (53-474) WT)	Kd (mouse Rbpj (53-474) E89G)	Binder
4.8e+07 M⁻¹	20.8 nM	5.1e+07 M⁻¹	22.4 nM	5.6e+07 M⁻¹	19.9 nM	–	–	–	VLLSRKRRRQHGQLWFPEGFKVSEASKK (Notch1, RAM domain; also called mNotch1 RAM; mouse Notch 1 RAM; source: synthetic peptide (Peptide2.0, 95% purity)) [Notch1 RAM peptide (residues 1754-1781)]
–	–	–	–	–	–	~20 nM	~20 nM	~20 nM	VLLSRKRRRQHGQLWFPEGFKVSEASKK (Notch1 RAM domain; the methods give human Notch1 residues 1754-1781, the results and the legend call it the mouse RAM domain; Methods say human Notch1 residues, results say mouse; also called mouse Notch 1 RAM; mouse RAM domain from Notch1; source: synthetic peptide (Peptide2.0, 95% purity)) [Notch1 RAM peptide (human Notch1 residues 1754-1781)]
–	–	–	–	–	–	21 nM	~5 nM	~5 nM	SHARP residues 2776-2833 (domain or fragment, human, UniProt Q96T58 2776-2833, looked up, called mouse SHARP in the results and the legend; also called mouse SHARP; mouse co-repressor SHARP; source: recombinant from pSMT3, purified as previously described) RASANENSRFHPGSMPVIDDRPADAGSGAGLRVNTSEGVVLLSYSGQKTEGPQRISAK
1.5e+09 M⁻¹	3.5 nM	5.8e+07 M⁻¹	21.1 nM	2.9e+08 M⁻¹	5.2 nM	–	–	–	SHARP residues 2776-2833 (domain or fragment, human, UniProt Q96T58 2776-2833, looked up, the methods say human SHARP, the results and legend say mouse SHARP; species told as human in the methods and as mouse in the results and legend; also called mouse SHARP; source: bacterial recombinant, pSMT3, purified as previously described) RASANENSRFHPGSMPVIDDRPADAGSGAGLRVNTSEGVVLLSYSGQKTEGPQRISAK
